The source of these data is IntAct's records for PubMed 14596906.

B1: Formin-binding protein 1 (Homo sapiens), Q96RU3 (parent)
chain: MSWGTELWDQFDNLEKHTQWGIDILEKYIKFVKERTEIELSYAKQLRNLSKKYQPKKNSKEEEEYKYTSCKAFISNLNEMNDYAGQHEVISENMASQIIVDLARYVQELKQERKSNFHDGRKAQQHIETCWKQLESSKRRFERDCKEADRAQQYFEKMDADINVTKADVEKARQQAQIRHQMAEDSKADYSSILQKFNHEQHEYYHTHIPNIFQKIQEMEERRIVRMGESMKTYAEVDRQVIPIIGKCLDGIVKAAESIDQKNDSQLVIEAYKSGFEPPGDIEFEDYTQPMKRTVSDNSLSNSRGEGKPDLKFGGKSKGKLWPFIKKNKLMSLLTSPHQPPPPPPASASPSAVPNGPQSPKQQKEPLSHRFNEFMTSKPKIHCFRSLKRGLSLKLGATPEDFSNLPPEQRRKKLQQKVDELNKEIQKEMDQRDAITKMKDVYLKNPQMGDPASLDHKLAEVSQNIEKLRVETQKFEAWLAEVEGRLPARSEQARRQSGLYDSQNPPTVNNCAQDRESPDGSYTEEQSQESEMKVLATDFDDEFDDEEPLPAIGTCKALYTFEGQNEGTISVVEGETLYVIEEDKGDGWTRIRRNEDEEGYVPTSYVEVCLDKNAKDS

The variants in this assay derive from B1. The settings on record: with tnks1_human TNKS.
R515A;D519A: the “effect of a mutation on the interaction” value is listed as “disrupting interaction”.
Then R515A, with “decreasing interaction”.
